# Assay results as given in publication PMC11322666.
# Molecular target: UPF3B (UniProt Q9BZI7)
# Experiment: co-IP of IRE1α S724 mutants
# Conditions: reference: wild type; sites S724
substance,measurement,value
IRE1α (inositol-requiring enzyme-1α) (from UniProt O75460) S724A,fold change,stronger
